Target: N-type voltage-sensitive calcium channels (receptors in rat brain membrane) (rat) (UniProt Q02294)
UniProt Q02294, sequence (Q02294 whole entry): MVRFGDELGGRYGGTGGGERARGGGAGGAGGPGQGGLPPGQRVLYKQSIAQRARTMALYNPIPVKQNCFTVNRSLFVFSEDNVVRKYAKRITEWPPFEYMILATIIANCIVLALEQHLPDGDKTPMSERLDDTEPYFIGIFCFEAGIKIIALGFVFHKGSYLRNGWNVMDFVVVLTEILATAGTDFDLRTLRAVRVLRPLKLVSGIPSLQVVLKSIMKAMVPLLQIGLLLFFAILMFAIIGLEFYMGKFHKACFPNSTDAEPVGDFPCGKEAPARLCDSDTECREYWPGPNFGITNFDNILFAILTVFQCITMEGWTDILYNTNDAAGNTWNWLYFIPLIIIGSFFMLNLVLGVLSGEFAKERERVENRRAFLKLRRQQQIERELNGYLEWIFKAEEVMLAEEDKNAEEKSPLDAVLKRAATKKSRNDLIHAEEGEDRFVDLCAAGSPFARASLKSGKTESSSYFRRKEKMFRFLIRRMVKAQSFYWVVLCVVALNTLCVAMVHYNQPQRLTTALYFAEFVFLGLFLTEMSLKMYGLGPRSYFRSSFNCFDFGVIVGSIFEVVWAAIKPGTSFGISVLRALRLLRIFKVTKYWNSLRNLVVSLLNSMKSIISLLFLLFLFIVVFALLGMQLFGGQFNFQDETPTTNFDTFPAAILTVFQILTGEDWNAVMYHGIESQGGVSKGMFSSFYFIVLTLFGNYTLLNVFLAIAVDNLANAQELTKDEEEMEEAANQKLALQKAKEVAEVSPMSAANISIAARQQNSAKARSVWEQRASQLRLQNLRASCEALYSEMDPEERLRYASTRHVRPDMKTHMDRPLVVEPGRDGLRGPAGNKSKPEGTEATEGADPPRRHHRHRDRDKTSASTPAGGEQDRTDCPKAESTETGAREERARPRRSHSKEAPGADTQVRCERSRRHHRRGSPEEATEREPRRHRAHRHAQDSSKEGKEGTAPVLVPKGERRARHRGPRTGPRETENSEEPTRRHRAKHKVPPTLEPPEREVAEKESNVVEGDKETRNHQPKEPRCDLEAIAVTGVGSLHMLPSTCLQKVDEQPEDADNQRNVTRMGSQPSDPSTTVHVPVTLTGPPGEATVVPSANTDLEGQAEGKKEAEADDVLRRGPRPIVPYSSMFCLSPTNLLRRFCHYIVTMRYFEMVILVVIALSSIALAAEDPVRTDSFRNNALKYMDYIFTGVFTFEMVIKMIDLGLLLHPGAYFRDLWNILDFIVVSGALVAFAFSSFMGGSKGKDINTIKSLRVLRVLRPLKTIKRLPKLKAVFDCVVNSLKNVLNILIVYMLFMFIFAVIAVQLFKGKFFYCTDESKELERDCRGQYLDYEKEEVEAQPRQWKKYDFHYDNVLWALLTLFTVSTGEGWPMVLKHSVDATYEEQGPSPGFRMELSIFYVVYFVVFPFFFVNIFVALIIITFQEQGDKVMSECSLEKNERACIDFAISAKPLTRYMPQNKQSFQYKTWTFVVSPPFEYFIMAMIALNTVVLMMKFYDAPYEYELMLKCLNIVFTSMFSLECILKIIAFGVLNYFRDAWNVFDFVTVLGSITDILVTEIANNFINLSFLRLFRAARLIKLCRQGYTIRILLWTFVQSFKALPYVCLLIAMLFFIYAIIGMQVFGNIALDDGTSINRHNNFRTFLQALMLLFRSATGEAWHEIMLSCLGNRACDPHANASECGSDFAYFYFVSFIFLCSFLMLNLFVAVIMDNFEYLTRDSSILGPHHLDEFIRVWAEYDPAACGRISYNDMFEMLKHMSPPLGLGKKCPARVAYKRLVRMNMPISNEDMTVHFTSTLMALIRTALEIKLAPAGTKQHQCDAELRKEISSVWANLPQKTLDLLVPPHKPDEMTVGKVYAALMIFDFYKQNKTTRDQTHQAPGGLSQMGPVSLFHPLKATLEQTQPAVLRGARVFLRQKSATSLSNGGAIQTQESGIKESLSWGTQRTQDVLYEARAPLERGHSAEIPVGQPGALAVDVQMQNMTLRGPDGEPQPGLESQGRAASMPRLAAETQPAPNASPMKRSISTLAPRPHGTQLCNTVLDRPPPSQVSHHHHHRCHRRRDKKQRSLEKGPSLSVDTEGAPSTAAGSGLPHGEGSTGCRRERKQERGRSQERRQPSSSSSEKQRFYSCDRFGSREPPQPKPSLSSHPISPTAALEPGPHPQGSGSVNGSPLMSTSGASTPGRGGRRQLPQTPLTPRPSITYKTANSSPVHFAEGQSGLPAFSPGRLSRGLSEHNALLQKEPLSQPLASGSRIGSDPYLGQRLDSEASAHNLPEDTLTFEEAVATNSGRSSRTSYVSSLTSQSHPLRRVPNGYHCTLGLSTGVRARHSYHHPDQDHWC

Substance: ω-conotoxin MVIIA (from UniProt P05484 46-70) (peptide)
- EC50: 0.044 nM

Source: patent US7687457B2, “Cyclic molecular framework and derivatives thereof” (The University of Queensland, priority 1999, dated 2010)
